Results on two proteins are retold here after paper PMC8726015.

Assay in all cases: purified protein
Common to all, as to conditions: ATP; Mg2+

Substrate in series [1]: CC(C)(CO)[C@@H](O)C(=O)NCCCC(=O)O
Format: biochemical, Homo sapiens.

Substrate in series [2]: CC(C)(CO)[C@@H](O)C(=O)NCCC(=O)NCCS
It is filed as biochemical, Homo sapiens.

Substrate in series [3]: CC(C)(CO)[C@@H](O)C(=O)NCCCC(=O)O
It is filed as biochemical, Drosophila melanogaster.

Substrate in series [4]: CC(C)(CO)[C@@H](O)C(=O)NCCC(=O)NCCS
It is filed as biochemical, Drosophila melanogaster.

By kcat is commonly meant the maximal rate divided by the concentration of active sites. What is called kcat/Km is the second-order rate constant that governs catalysis at low substrate concentration.

B1: human pantothenate kinase hPANK3 (Homo sapiens) (protein)
chain: PWFGMDIGGTLVKLSYFEPIDITAEEEQEEVESLKSIRKYLTSNVAYGSTGIRDVHLELKDLTLFGRRGNLHFIRFPTQDLPTFIQMGRDKNFSTLQTVLCATGGGAYKFEKDFRTIGNLHLHKLDELDCLVKGLLYIDSVSFNGQAECYYFANASEPERCQKMPFNLDDPYPLLVVNIGSGVSILAVHSKDNYKRVTGTSLGGGTFLGLCSLLTGCESFEEALEMASKGDSTQADKLVRDIYGGDYERFGLPGWAVASSFGNMIYKEKRESVSKEDLARATLVTITNNIGSVARMCAVNEKINRVVFVGNFLRVNTLSMKLLAYALDYWSKGQLKALFLEHEGYFGAVGALLGLPNFS
On to B1, for which, in series [1], the K0.5 was 36.2 ± 2.1 µM, the kcat came to 0.67 ± 0.02 s⁻¹ and the kcat/Km was 19500 ± 1600 M⁻¹ s⁻¹. In addition, in series [2], the K0.5 was 8.05 ± 1.87 µM, the kcat stood at 0.41 ± 0.13 s⁻¹ and the kcat/Km worked out at 57600 ± 24600 M⁻¹ s⁻¹.

B2: fruit fly pantothenate kinase dPANK/FblD (Fumble D) (Drosophila melanogaster) (protein)
chain: MPWFGMDIGGTLTKLVYFEPKDITPDEQDREAGILRNIRRYLTKNSAYGKTGHRDTHLQMDNVEIRKRRGSLHFIRFQTTDMGNFLSLAKQKGMAELVTTVCATGGGAFKFEQDFRDQVNMKLAKFDELDTLIKGILFADLHNRTECYYYENARDILKSEKQQFNFSQPFPFILVNVGSGVSILAVYGPDNYKRISGTSLGGGTFLGLCCLLTGCTSFEEAIQLATKGDNRKVDKLVKDIYGGDYNRFGLPGDLVASSFGQMHLNDKRVSVSREDLANATLVTITNNIGSIARMCALNEKIDRVVFVGNFLRVNPISMKLLAYAMEFWSNGTMKGLFLEHEGYFGALGCLLQFNGELAAALNDGVEHSIHTESDSASEAAQTSSTADEPPEKAPTSKHSTR
Take B2: in series [3], the K0.5 stood at 82.2 ± 12.4 µM, the kcat came to 2.72 ± 0.5 s⁻¹ and the kcat/Km was found to be 35600 ± 8400 M⁻¹ s⁻¹. Besides, the K0.5 in series [4] was 28.9 ± 13.0 µM.
